Values joined by “and” are separate entries in the source; they are usually repeats but may differ in a detail not shown here. Identical values can stand only once.
Experiments:
[1] = target: full-length Mff (mitochondrial fission factor), reconstituted in CL-free nanotubes or liposomes; experiment: cell-based or functional assay
[2] = target: the molecule itself; experiment: SEC-MALS; full-length Drp1 WT and mutants, nucleotide-free, each loaded at 10 μM in 500 μl onto Superose 6 10/300 GL in Buffer A (20 mM HEPES pH 7.5, 150 mM KCl) with 1 mM DTT
[3] = target: the molecule itself; experiment: SEC-MALS; included (soluble) fraction of Drp1ΔVD loaded at 6 μM onto Superose 6 10/300 GL

Binder | Mff-stimulated GTPase activity on NT compared to Drp1 WT [1] | stoichiometry N [2] | stoichiometry N [3]
Drp1 R247A (full-length) (natural protein, human, UniProt O00429-4 1-699, looked up, dynamin-related protein 1 (Drp1), human, full length, with R247A in the GTPase domain; source: E. coli BL21 Star (DE3), purified) MEALIPVINKLQDVFNTVGADIIQLPQIVVVGTQSSGKSSVLESLVGRDLLPRGTGIVTRRPLILQLVHVSQEDKRKTTGEENGVEAEEWGKFLHTKNKLYTDFDEIRQEIENETERISGNNKGVSPEPIHLKIFSPNVVNLTLVDLPGMTKVPVGDQPKDIELQIRELILRFISNPNSIILAVTAANTDMATSEALKISREVDPDGRRTLAVITKLDLMDAGTDAMDVLMGRVIPVKLGIIGVVNASQLDINNKKSVTDSIRDEYAFLQKKYPSLANRNGTKYLARTLNRLLMHHIRDCLPELKTRINVLAAQYQSLLNSYGEPVDDKSATLLQLITKFATEYCNTIEGTAKYIETSELCGGARICYIFHETFGRTLESVDPLGGLNTIDILTAIRNATGPRPALFVPEVSFELLVKRQIKRLEEPSLRCVELVHEEMQRIIQHCSNYSTQELLRFPKLHDAIVEVVTCLLRKRLPVTNEMVHNLVAIELAYINTKHPDFADACGLMNNNIEEQRRNRLARELPSAVSRDKVASGGGGVGDGVQEPTTGNWRGMLKTSKAEELLAEEKSKPIPIMPASPQKGHAVNLLDVPVPVARKLSAREQRDCEVIERLIKSYFLIVRKNIQDSVPKAVMHFLVNHVKDTLQSELVGQLYKSSLLDDLLTESEDMAQRRKEAADMLKALQGASQIIAEIRETHLW | 3 fold | 2 and 4 | –
full-length Drp1 WT (Drp1 short; human isoform 3; 699 a.a.) (natural protein, UniProt O00429-4 1-699, looked up, dynamin-related protein 1 (Drp1), human, short isoform; human isoform 3; 699 a.a; also called Drp1-short-80-loop; dynamin-related protein 1; source: E. coli BL21 Star (DE3), purified) MEALIPVINKLQDVFNTVGADIIQLPQIVVVGTQSSGKSSVLESLVGRDLLPRGTGIVTRRPLILQLVHVSQEDKRKTTGEENGVEAEEWGKFLHTKNKLYTDFDEIRQEIENETERISGNNKGVSPEPIHLKIFSPNVVNLTLVDLPGMTKVPVGDQPKDIELQIRELILRFISNPNSIILAVTAANTDMATSEALKISREVDPDGRRTLAVITKLDLMDAGTDAMDVLMGRVIPVKLGIIGVVNRSQLDINNKKSVTDSIRDEYAFLQKKYPSLANRNGTKYLARTLNRLLMHHIRDCLPELKTRINVLAAQYQSLLNSYGEPVDDKSATLLQLITKFATEYCNTIEGTAKYIETSELCGGARICYIFHETFGRTLESVDPLGGLNTIDILTAIRNATGPRPALFVPEVSFELLVKRQIKRLEEPSLRCVELVHEEMQRIIQHCSNYSTQELLRFPKLHDAIVEVVTCLLRKRLPVTNEMVHNLVAIELAYINTKHPDFADACGLMNNNIEEQRRNRLARELPSAVSRDKVASGGGGVGDGVQEPTTGNWRGMLKTSKAEELLAEEKSKPIPIMPASPQKGHAVNLLDVPVPVARKLSAREQRDCEVIERLIKSYFLIVRKNIQDSVPKAVMHFLVNHVKDTLQSELVGQLYKSSLLDDLLTESEDMAQRRKEAADMLKALQGASQIIAEIRETHLW | – | 4 and 2 | –
Drp1 G350D (full-length stalk L1N mutant) (natural protein, human, UniProt O00429-4 1-699, looked up, dynamin-related protein 1 (Drp1), human, short isoform (isoform 3, 699 a.a.) with G350D; source: E. coli BL21 Star (DE3), purified) MEALIPVINKLQDVFNTVGADIIQLPQIVVVGTQSSGKSSVLESLVGRDLLPRGTGIVTRRPLILQLVHVSQEDKRKTTGEENGVEAEEWGKFLHTKNKLYTDFDEIRQEIENETERISGNNKGVSPEPIHLKIFSPNVVNLTLVDLPGMTKVPVGDQPKDIELQIRELILRFISNPNSIILAVTAANTDMATSEALKISREVDPDGRRTLAVITKLDLMDAGTDAMDVLMGRVIPVKLGIIGVVNRSQLDINNKKSVTDSIRDEYAFLQKKYPSLANRNGTKYLARTLNRLLMHHIRDCLPELKTRINVLAAQYQSLLNSYGEPVDDKSATLLQLITKFATEYCNTIEDTAKYIETSELCGGARICYIFHETFGRTLESVDPLGGLNTIDILTAIRNATGPRPALFVPEVSFELLVKRQIKRLEEPSLRCVELVHEEMQRIIQHCSNYSTQELLRFPKLHDAIVEVVTCLLRKRLPVTNEMVHNLVAIELAYINTKHPDFADACGLMNNNIEEQRRNRLARELPSAVSRDKVASGGGGVGDGVQEPTTGNWRGMLKTSKAEELLAEEKSKPIPIMPASPQKGHAVNLLDVPVPVARKLSAREQRDCEVIERLIKSYFLIVRKNIQDSVPKAVMHFLVNHVKDTLQSELVGQLYKSSLLDDLLTESEDMAQRRKEAADMLKALQGASQIIAEIRETHLW | – | 2 | –
Drp1ΔVD (Δ514–602) (natural protein, human, UniProt O00429-4 1-699, looked up, dynamin-related protein 1 (Drp1), human, with the variable domain deleted (Δ514–602); ~70 kDa monomer; source: E. coli BL21 Star (DE3), purified) MEALIPVINKLQDVFNTVGADIIQLPQIVVVGTQSSGKSSVLESLVGRDLLPRGTGIVTRRPLILQLVHVSQEDKRKTTGEENGVEAEEWGKFLHTKNKLYTDFDEIRQEIENETERISGNNKGVSPEPIHLKIFSPNVVNLTLVDLPGMTKVPVGDQPKDIELQIRELILRFISNPNSIILAVTAANTDMATSEALKISREVDPDGRRTLAVITKLDLMDAGTDAMDVLMGRVIPVKLGIIGVVNRSQLDINNKKSVTDSIRDEYAFLQKKYPSLANRNGTKYLARTLNRLLMHHIRDCLPELKTRINVLAAQYQSLLNSYGEPVDDKSATLLQLITKFATEYCNTIEGTAKYIETSELCGGARICYIFHETFGRTLESVDPLGGLNTIDILTAIRNATGPRPALFVPEVSFELLVKRQIKRLEEPSLRCVELVHEEMQRIIQHCSNYSTQELLRFPKLHDAIVEVVTCLLRKRLPVTNEMVHNLVAIELAYINTKHPDFADACGLMNNNIEEQRDCEVIERLIKSYFLIVRKNIQDSVPKAVMHFLVNHVKDTLQSELVGQLYKSSLLDDLLTESEDMAQRRKEAADMLKALQGASQIIAEIRETHLW | – | – | 4
